From patent publication US6537804B1, “BCR-ABL directed compositions and uses for inhibiting Philadelphia chromesome stimulated cell growth” (Board of Regents, The University of Texas Systems, priority 1995, dated 2003)
Each block holds one molecule with its values, some of them ahead of it. Non-standard residues stand in square brackets, D forms with d. No end group written: not given here. pS = N[C@@H](COP(=O)(O)O)C(=O)O

Tests used:
P185 BCR-ABL = molecular target: T1, P185 BCR-ABL (Homo sapiens, UniProt P00519+P11274); assay: Bcr-Abl autokinase (immune complex kinase) assay; type: biochemical; details: for Inhibition of Bcr-Abl tyrosine kinase activity (autophosphorylation): 50 μg of peptide added to P185 BCR-ABL immune complexes from SUP B15 cells
T1 construct: endogenous in cells; host or cells: SUP-B15 (Ph1-positive ALL cell line)
Experimental: FIG. 21. Phosphoserine Bcr peptide pS354 S17K (SEQ ID NO:22) inhibits the Bcr-Abl tyrosine kinase activity. The SUP B15 cell line derived from a patient with Bcr-Abl-positive acute lymphocytic leukemia (ALL) were grown in culture; cells were lysed and the Bcr-Abl oncoprotein immunoprecipitated with a monoclonal antibody p6D (anti-Abl 51-64). The immune complexes were mixed with either no peptide or 50 μg of peptide prior to addition of the kinase activating buffer containing [γ-^32P]ATP. After the assay was completed, the proteins were fractionated by SDS gel electrophoresis. Radioactive proteins were detected by phosphoimage analysis. Lane 1, no peptide; lane 2, 50 μg of pS354 S17K; lane 3, 50 μg of unphosphorylated S17K.
FIG. 23A, FIG. 23B and FIG. 23C. A Bcr fragment expressed in COS-1 cells inhibits the Bcr-Abl tyrosine kinase in vitro. In these studies, the Bcr fragment was expressed in COS-1 cells, then isolated by immunoprecipitation with anti-Bcr 181-194 antibody. This immune complex was isolated by binding to protein A Sepharose beads; these immune complexes were added to protein A Sepharose beads containing P185 BCR-ABL harvested from SUP B15 leukemic cells with anti-Abl 51-64. The autokinase reaction was performed to measure the tyrosine kinase activity of Bcr-Abl.
Immunokinase Assay: The immunokinase assays were performed as described by Campbell et al. (1990) with modifications. The cells are lysed by homogenizing the cell pellet in two different lysis buffers at 0° C. in a tight fitting Wheaton homogenizer (either 0.1% Triton-X100, 100 mM NaCl, 5 mM EDTA, 10 mM sodium phosphate, pH 7.2 or 1% Triton-X100, 100 mM NaCl, 0.5% sodium deoxycholate, 0.1% SDS, 5 mM EDTA, 10 mM sodium phosphate pH 7.2). Both buffers were supplemented with 30 mM sodium pyrophosphate, 100 KIU aprotinin, 1 mM benzamidine, 1 mM phenylmethylsulfonyl fluoride and 0.2 mM sodium vanadate.
Immunoprecipitation reactions were carried out utilizing 20-40 μl of the respective anti-peptide rabbit sera or 5 μl of monoclonal antibody at 0° C. for 1 hour. Blocked immunoprecipitations refer to those immunoprecipitation reactions performed with antisera that have been preincubated with excess cognate peptide to specifically block the anti-peptide antibodies.
The resulting antigen-antibody immunoprecipitates were collected with 30 μl of 50% protein A-Sepharose (Pharmacia, Uppsala, Sweden), pelleted and washed with RIPA buffer (0.1% Triton X-100, 0.05% SDS, 0.5% sodium deoxycholate, 100 mM NaCl in 10 mM phosphate buffer, pH 7.2), wash buffer (0.1% Triton X-100, 100 mM NaCl, in 10 mM phosphate buffer, pH 7.2) and finally with 50 mM Tris buffer, pH 7.2. […]

P210 BCR-ABL = molecular target: T2, P210 BCR-ABL (Homo sapiens, UniProt P00519+P11274); assay: In vivo tyrosine phosphorylation of truncated Bcr proteins in COS-1 cells, anti-pTyr Western blot; type: cell-based; details: COS-1 cells coexpressing p210 Bcr-Abl
T2 construct: expressed in transfected cells; host or cells: COS-1
Text: FIG. 6A and FIG. 6B. In vivo tyrosine phosphorylation of truncated Bcr first exon sequences by Bcr-Abl. COS-1 vectors expressing Bcr150, Bcr221, and Bcr413 proteins, respectively, were expressed in COS-1 cells in the presence and absence of […].
The next tyrosine is at residue 177, and it is expected to be phosphorylated by Bcr-Abl (Puil et al., 1994). Bcr221 is tyrosine phosphorylated, but as with Bcr413, only in the presence of Bcr-Abl.
Transient transfections of COS1 cells were performed by the diethylaminoethyl (DEAE)-Dextran procedure. Transfection was initiated when COS1 cells were about 60%-80% confluent. After washing once with phosphate-buffered saline (PBS) and once with Tris-buffered Saline-0.02% Dextrose (TBS-D), cells were incubated with TBS-D containing 0.2 mg/ml DEAE-Dextran and 2 μg/ml of each added plasmid. The supernatant was then removed after 5-10 minutes when the cells started to round up and shrink.
After washing once with TBS-D and once with PBS, the cells were incubated in DMEM supplemented with 10% fetal calf serum and 100 μg/ml of chloroquine at 37° C. The chloroquine containing media was removed after 3-5 hours and the cells were washed three times with DMEM without fetal calf serum. The cells were then incubated in DMEM supplemented with 10% fetal calf serum at 37° C. for 2-3 days before harvesting.
COS-1 vectors expressing Bcr159, Bcr221, and Bcr413 proteins, respectively, were expressed in COS-1 cells in the presence and absence of p210 Bcr-Abl.

casein = assay: Immune complex kinase assay of mutant P160 BCR, transphosphorylation of casein; type: biochemical; details: mutant P160 BCR expressed in COS-1 cells
Text: Mutant forms of P160^BCR were expressed in COS-1 cells and tested for serine/threonine kinase activities in immune complex kinase assays.
Using the intensities of the P160^BCR bands as an indication of the amount of active P160^BCR in the immune complex and the intensities of the casein bands as a measure of transphosphorylation activity, the transphosphorylation activity of the Y360F Bcr mutant was reduced about sevenfold, compared with that of the wild type. Similarly, the Y360F Bcr mutant was also defective in transphosphorylating another exogenous substrate, histone H1.
The amounts of Bcr within these immune complexes were quantitated in two ways. In a first method, the amounts of Bcr mutants would be underestimated by about 10%, compared with that of the wild type. On the basis of these measurements, the specific activity of transkinase activity (casein intensity/P160^BCR intensity) of the Y360F Bcr mutant (0.03) was reduced more than 20-fold in this study, compared with that of the wild type.
The second method of estimating the amounts of P160^BCR in immune complexes involved the Western blotting of these immune complexes with an anti-Bcr antibody. The specific activity of Y360F was reduced by about sixfold. […] By using autophosphorylation of the Bcr protein as a measure of its relative amount, the reduction of Bcr's transkinase by the Y360F mutation was about sevenfold, confirming the results obtained by the Western blot method.

T2 sequence (P11274+P00519 fused): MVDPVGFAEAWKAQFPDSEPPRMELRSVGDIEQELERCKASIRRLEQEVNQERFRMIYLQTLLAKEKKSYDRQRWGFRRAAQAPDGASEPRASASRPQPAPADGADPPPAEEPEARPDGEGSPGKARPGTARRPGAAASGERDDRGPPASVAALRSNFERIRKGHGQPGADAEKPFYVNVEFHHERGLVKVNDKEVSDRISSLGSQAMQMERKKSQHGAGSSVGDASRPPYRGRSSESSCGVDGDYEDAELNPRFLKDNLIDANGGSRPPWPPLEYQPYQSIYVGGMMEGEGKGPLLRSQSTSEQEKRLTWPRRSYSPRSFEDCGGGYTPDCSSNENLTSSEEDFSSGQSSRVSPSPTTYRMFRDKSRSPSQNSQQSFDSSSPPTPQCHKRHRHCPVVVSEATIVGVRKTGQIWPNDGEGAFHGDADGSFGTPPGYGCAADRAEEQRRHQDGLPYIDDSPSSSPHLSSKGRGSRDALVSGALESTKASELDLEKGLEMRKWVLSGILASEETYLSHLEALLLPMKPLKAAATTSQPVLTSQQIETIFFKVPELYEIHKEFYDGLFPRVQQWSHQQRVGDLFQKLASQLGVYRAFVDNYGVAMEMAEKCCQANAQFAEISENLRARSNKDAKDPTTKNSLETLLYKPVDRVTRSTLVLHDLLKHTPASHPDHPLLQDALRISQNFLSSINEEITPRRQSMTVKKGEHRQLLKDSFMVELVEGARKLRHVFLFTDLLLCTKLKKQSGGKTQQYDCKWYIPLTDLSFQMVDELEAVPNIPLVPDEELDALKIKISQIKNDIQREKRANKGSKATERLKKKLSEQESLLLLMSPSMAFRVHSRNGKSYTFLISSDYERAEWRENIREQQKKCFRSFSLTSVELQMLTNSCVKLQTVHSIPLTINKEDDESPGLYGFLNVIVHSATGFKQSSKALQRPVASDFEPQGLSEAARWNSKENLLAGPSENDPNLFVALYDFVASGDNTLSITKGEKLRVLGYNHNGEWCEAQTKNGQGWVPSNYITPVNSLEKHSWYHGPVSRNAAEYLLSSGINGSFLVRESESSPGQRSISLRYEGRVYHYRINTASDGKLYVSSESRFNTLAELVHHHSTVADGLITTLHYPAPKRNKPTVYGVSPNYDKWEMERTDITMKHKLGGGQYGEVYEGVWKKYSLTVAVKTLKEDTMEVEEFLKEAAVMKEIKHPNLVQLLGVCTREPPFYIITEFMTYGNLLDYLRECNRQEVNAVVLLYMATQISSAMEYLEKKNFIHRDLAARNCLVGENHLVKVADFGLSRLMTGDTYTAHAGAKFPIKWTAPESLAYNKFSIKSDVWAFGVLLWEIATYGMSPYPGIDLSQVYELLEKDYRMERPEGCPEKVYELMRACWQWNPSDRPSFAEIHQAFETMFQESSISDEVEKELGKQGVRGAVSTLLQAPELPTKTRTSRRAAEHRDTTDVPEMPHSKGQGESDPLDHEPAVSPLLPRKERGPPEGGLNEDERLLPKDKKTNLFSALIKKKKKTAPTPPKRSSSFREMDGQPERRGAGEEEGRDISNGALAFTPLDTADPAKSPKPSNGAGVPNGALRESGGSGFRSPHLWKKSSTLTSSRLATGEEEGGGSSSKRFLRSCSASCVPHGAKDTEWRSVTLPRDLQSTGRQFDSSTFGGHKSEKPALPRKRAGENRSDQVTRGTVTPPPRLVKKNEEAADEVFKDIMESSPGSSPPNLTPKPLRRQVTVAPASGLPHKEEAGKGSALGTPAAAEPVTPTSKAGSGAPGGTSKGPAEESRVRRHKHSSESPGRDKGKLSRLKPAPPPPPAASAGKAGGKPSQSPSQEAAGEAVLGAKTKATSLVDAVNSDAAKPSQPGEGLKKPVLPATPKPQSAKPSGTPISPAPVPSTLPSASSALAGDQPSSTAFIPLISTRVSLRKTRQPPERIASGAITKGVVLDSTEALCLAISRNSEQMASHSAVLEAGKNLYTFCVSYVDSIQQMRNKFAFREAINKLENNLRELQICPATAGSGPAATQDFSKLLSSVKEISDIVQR
T1 sequence (P11274+P00519 fused): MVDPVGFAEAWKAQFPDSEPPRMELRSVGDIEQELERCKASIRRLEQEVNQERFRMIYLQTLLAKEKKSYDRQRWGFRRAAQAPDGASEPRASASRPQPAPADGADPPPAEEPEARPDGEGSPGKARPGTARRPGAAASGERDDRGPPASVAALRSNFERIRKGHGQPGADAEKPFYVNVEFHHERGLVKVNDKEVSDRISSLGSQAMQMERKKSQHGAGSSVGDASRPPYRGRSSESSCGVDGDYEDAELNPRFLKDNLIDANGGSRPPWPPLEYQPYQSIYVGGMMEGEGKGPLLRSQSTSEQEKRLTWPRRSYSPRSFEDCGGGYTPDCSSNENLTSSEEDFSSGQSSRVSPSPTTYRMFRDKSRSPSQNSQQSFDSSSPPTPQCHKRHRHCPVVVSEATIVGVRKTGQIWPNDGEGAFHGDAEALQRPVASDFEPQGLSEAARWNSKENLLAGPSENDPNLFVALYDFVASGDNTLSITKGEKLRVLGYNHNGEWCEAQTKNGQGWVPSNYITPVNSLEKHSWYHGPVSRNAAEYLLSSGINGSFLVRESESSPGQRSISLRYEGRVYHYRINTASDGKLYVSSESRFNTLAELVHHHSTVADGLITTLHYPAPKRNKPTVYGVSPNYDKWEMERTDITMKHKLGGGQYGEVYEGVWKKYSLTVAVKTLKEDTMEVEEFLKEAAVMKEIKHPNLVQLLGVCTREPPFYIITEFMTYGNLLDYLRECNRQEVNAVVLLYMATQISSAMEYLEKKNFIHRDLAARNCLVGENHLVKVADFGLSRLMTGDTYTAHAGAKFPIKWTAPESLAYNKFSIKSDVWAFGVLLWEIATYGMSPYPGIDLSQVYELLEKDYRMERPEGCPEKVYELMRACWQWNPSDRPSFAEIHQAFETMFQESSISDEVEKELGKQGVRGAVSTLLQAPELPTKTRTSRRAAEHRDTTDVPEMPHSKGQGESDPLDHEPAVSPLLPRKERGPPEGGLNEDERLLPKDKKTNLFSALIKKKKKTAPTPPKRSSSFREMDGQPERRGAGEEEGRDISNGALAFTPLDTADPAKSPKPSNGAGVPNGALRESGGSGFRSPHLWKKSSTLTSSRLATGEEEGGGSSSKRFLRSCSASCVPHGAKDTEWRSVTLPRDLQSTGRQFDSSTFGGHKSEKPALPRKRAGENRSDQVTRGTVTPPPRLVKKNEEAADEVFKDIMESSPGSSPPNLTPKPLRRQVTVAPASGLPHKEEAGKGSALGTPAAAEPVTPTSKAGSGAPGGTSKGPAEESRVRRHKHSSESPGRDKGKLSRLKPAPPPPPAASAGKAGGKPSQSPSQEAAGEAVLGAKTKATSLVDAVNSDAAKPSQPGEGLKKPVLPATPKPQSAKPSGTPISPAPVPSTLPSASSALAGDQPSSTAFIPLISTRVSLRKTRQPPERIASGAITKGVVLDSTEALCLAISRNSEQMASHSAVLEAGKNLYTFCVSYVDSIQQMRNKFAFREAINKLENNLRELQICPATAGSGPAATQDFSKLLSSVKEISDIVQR

Inhibition of Bcr-Abl tyrosine kinase activity (autophosphorylation) (P185 BCR-ABL): strongly inhibited
Molecule: 350-SSRVpS*PSPTTYRMFRDK-366 (SSRV[pS]PSPTTYRMFRDK) [pS354 S17K]

Inhibition of Bcr-Abl tyrosine kinase activity (autophosphorylation) (P185 BCR-ABL): little affect
Molecule: unphosphorylated S17K: unphosphorylated form of Bcr peptide S17K, Bcr residues 350 to 366 (SSRVSPSPTTYRMFRDK)

Tyrosine phosphorylation by Bcr-Abl in cells (P210 BCR-ABL): induces tyrosine phosphorylation
B1: Bcr221: amino acids 1-221 of Bcr, N-terminal fragment (protein)
chain: MVDPVGFAEAWKAQFPDSEPPRMELRSVGDIEQELERCKASIRRLEQEVNQERFRMIYLQTLLAKEKKSYDRQRWGFRRAAQAPDGASEPRASASRPQPAPADGADPPPAEEPEARPDGEGSPGKARPGTARRPGAAASGERDDRGPPASVAALRSNFERIRKGHGQPGADAEKPFYVNVEFHHERGLVKVNDKEVSDRISSLGSQAMQMERKKSQHGAGS

Inhibition of Bcr-Abl tyrosine kinase activity (P185 autokinase) (P185 BCR-ABL; immune complexes on protein A Sepharose beads added to P185 BCR-ABL immunoprecipitates from SUP B15): potent inhibitor
Inhibitory activity towards Bcr-Abl kinase after boiling (P185 BCR-ABL; immunoprecipitate boiled for a few minutes prior to addition to the kinase assay): strongly decreased
B2: Bcr fragment (64-413): Bcr sequences from amino acid 64 to 413 with both A and B serine-rich boxes, expressed in COS-1 cells (protein)
chain: AKEKKSYDRQRWGFRRAAQAPDGASEPRASASRPQPAPADGADPPPAEEPEARPDGEGSPGKARPGTARRPGAAASGERDDRGPPASVAALRSNFERIRKGHGQPGADAEKPFYVNVEFHHERGLVKVNDKEVSDRISSLGSQAMQMERKKSQHGAGSSVGDASRPPYRGRSSESSCGVDGDYEDAELNPRFLKDNLIDANGGSRPPWPPLEYQPYQSIYVGGMMEGEGKGPLLRSQSTSEQEKRLTWPRRSYSPRSFEDCGGGYTPDCSSNENLTSSEEDFSSGQSSRVSPSPTTYRMFRDKSRSPSQNSQQSFDSSSPPTPQCHKRHRHCPVVVSEATIVGVRKTGQI

Tyrosine phosphorylation by Bcr-Abl in cells (P210 BCR-ABL): not
B3: Bcr159: amino acids 1-159 of Bcr, N-terminal fragment (protein)
chain: MVDPVGFAEAWKAQFPDSEPPRMELRSVGDIEQELERCKASIRRLEQEVNQERFRMIYLQTLLAKEKKSYDRQRWGFRRAAQAPDGASEPRASASRPQPAPADGADPPPAEEPEARPDGEGSPGKARPGTARRPGAAASGERDDRGPPASVAALRSNFE

Ability to transphosphorylate casein compared with wild-type Bcr (casein): not significantly altered
B4: Bcr Y283F: P160 BCR with tyrosine 283 to phenylalanine mutation (protein, UniProt P11274 1-1271, looked up, variant Y283F)
Breakpoint cluster region …: MVDPVGFAEAWKAQFPDSEPPRMELRSVGDIEQELERCKASIRRLEQEVNQERFRMIYLQTLLAKEKKSYDRQRWGFRRAAQAPDGASEPRASASRPQPAPADGADPPPAEEPEARPDGEGSPGKARPGTARRPGAAASGERDDRGPPASVAALRSNFERIRKGHGQPGADAEKPFYVNVEFHHERGLVKVNDKEVSDRISSLGSQAMQMERKKSQHGAGSSVGDASRPPYRGRSSESSCGVDGDYEDAELNPRFLKDNLIDANGGSRPPWPPLEYQPYQSIFVGGMMEGEGKGPLLRSQSTSEQEKRLTWPRRSYSPRSFEDCGGGYTPDCSSNENLTSSEEDFSSGQSSRVSPSPTTYRMFRDKSRSPSQNSQQSFDSSSPPTPQCHKRHRHCPVVVSEATIVGVRKTGQIWPNDGEGAFHGDADGSFGTPPGYGCAADRAEEQRRHQDGLPYIDDSPSSSPHLSSKGRGSRDALVSGALESTKASELDLEKGLEMRKWVLSGILASEETYLSHLEALLLPMKPLKAAATTSQPVLTSQQIETIFFKVPELYEIHKEFYDGLFPRVQQWSHQQRVGDLFQKLASQLGVYRAFVDNYGVAMEMAEKCCQANAQFAEISENLRARSNKDAKDPTTKNSLETLLYKPVDRVTRSTLVLHDLLKHTPASHPDHPLLQDALRISQNFLSSINEEITPRRQSMTVKKGEHRQLLKDSFMVELVEGARKLRHVFLFTDLLLCTKLKKQSGGKTQQYDCKWYIPLTDLSFQMVDELEAVPNIPLVPDEELDALKIKISQIKNDIQREKRANKGSKATERLKKKLSEQESLLLLMSPSMAFRVHSRNGKSYTFLISSDYERAEWRENIREQQKKCFRSFSLTSVELQMLTNSCVKLQTVHSIPLTINKEDDESPGLYGFLNVIVHSATGFKQSSNLYCTLEVDSFGYFVNKAKTRVYRDTAEPNWNEEFEIELEGSQTLRILCYEKCYNKTKIPKEDGESTDRLMGKGQVQLDPQALQDRDWQRTVIAMNGIEVKLSVKFNSREFSLKRMPSRKQTGVFGVKIAVVTKRERSKVPYIVRQCVEEIERRGMEEVGIYRVSGVATDIQALKAAFDVNNKDVSVMMSEMDVNAIAGTLKLYFRELPEPLFTDEFYPNFAEGIALSDPVAKESCMLNLLLSLPEANLLTFLFLLDHLKRVAEKEAVNKMSLHNLATVFGPTLLRPSEKESKLPANPSQPITMTDSWSLEVMSQVQVLLYFLQLEAIPAPDSKRQSILFSTEV

Tyrosine phosphorylation by Bcr-Abl in cells (P210 BCR-ABL): induces tyrosine phosphorylation
B5: Bcr413: amino acids 1-413 of Bcr, N-terminal fragment (protein)
chain: MVDPVGFAEAWKAQFPDSEPPRMELRSVGDIEQELERCKASIRRLEQEVNQERFRMIYLQTLLAKEKKSYDRQRWGFRRAAQAPDGASEPRASASRPQPAPADGADPPPAEEPEARPDGEGSPGKARPGTARRPGAAASGERDDRGPPASVAALRSNFERIRKGHGQPGADAEKPFYVNVEFHHERGLVKVNDKEVSDRISSLGSQAMQMERKKSQHGAGSSVGDASRPPYRGRSSESSCGVDGDYEDAELNPRFLKDNLIDANGGSRPPWPPLEYQPYQSIYVGGMMEGEGKGPLLRSQSTSEQEKRLTWPRRSYSPRSFEDCGGGYTPDCSSNENLTSSEEDFSSGQSSRVSPSPTTYRMFRDKSRSPSQNSQQSFDSSSPPTPQCHKRHRHCPVVVSEATIVGVRKTGQI
